The source of these data is article PMC8501996.

The data set has as its target hRPA1;hRPA2;hRPA3 (Homo sapiens;Homo sapiens;Homo sapiens, UniProt P27694;P15927;P35244 1-616;1-270;1-121, ||). The experiment in a line: FRET kinetics.

Chain of hRPA1;hRPA2;hRPA3 (P27694 whole entry, chain 1 of 3): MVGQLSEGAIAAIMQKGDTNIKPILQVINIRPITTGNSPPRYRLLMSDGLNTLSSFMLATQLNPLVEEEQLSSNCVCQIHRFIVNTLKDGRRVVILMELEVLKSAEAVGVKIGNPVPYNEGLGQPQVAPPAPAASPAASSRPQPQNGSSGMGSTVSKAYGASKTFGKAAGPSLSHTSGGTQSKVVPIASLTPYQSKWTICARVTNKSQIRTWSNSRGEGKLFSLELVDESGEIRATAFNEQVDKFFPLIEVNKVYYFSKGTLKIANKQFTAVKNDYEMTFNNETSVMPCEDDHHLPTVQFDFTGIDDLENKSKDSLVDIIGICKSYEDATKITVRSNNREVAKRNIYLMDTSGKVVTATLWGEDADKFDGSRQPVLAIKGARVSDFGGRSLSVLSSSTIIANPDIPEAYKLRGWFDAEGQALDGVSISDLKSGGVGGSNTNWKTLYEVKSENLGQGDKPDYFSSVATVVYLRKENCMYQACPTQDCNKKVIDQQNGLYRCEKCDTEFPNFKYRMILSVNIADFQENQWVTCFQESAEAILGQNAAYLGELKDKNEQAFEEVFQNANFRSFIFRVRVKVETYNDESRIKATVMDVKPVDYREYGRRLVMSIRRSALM
Chain of hRPA1;hRPA2;hRPA3 (P15927 whole entry, chain 2 of 3): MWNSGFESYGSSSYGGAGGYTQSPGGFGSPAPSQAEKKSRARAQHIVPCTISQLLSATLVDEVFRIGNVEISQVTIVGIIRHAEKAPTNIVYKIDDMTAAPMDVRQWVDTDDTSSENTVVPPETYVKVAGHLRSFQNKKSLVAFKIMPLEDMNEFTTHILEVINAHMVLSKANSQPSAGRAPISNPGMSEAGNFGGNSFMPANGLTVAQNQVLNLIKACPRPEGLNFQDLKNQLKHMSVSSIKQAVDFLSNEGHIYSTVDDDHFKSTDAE
Chain of hRPA1;hRPA2;hRPA3 (P35244 whole entry, chain 3 of 3): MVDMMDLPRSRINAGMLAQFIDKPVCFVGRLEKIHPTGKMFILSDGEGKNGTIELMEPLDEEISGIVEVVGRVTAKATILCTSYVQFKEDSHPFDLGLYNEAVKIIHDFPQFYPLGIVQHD

B1: H69-Q2 (structured_DNA)
DNA: GGGTTAGGGTTAGGGTTAGGGTTAGGGTTAGGGTTAGGGTTAGGGTTAGGGTTAGGGTTAGGGTTAGGG
modifications: 6FAM-dT in 4th repeat (T23); TAMRA-dT in 8th repeat (T47)
As for B1, the binding result is “binds”.
